Source: the supplement of paper PMC7877785
± gives the uncertainty stated by the source.

Test: self-splicing fitness, log relative to wild type (ln ratio); higher = more splicing; Tetrahymena group I intron in knt gene, E. coli kanamycin selection, DiMSum; sequences stand for … in CUCUCU…GGAGGGAAAAGUUAUCAGGCAUGCACCUGGUAGCUAGUCUUUAAACCAAUAGAUUGCAUCGGUUUAAAAGGCAAGACCGUCAAAUUGCGGGAAAGGGGUCAACAGCCGUUCAGUACCAAGUCUCAGGGGAAACUUUGAGAUGGCCUUGCAAAGGGUAUGGUAAUAAGCUGACGGACAUGGUCCUAACCACGCAGCCAAGUCCUAAGUCAACAGAUCUUCUGUUGAUAUGGAUGCAGUUCACAGACUAAAUGUCGGUCGGGGAAGAUGUAUUCUUCUCAUAAGAUAUAGUCGGACCUCUCCUUAAUGGGAGCUAGCGGAUGAAGUGAUGCAACACUGGAGCCGCUGGGAACUAAUUUGUAUGCGAAAGUAUAUUGAUUAGUUUUGGAGUACUCGUGGUCG
In short: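 Six replicate transformations of E. coli BL21(DE3) with a pET-22b(+) library were grown overnight at 37°C or 30°C. The library randomised all eight P1ex-region intron nucleotides, the intron lying in the knt kanamycin-resistance gene, and plates were LB agar with or without 25 μg/mL kanamycin plus 100 μg/mL carbenicillin, 50 μM IPTG and 0.2% rhamnose. Pooled colonies were amplicon-sequenced on an Illumina HiSeq 2500, and fitness is the DiMSum error-weighted combination of wild-type-normalised replicate fold changes, kanamycin versus none.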

Row | Sequence | self-splicing fitness (ln) (30 °C) | self-splicing fitness (ln) (37 °C)
1 | GAAUAGCAAUAUUACGUGAU | -3.48 ± 0.17 | -1.27 ± 0.11
2 | GAAUAGCAAUAUUACGUGGG | -3.86 ± 0.21 | -2.81 ± 0.19
3 | GAAUAGCAAUAUUACGUUGA | -2.6 ± 0.13 | -0.487 ± 0.09
4 | GACAAGCAAUAUUACGAAGG | -4.06 ± 0.19 | -2.27 ± 0.19
5 | GACAAGCAAUAUUACGAGAU | -3.73 ± 0.23 | -2.78 ± 0.23
6 | GACAAGCAAUAUUACGAUAU | -1.33 ± 0.099 | -1.4 ± 0.1
7 | GACAAGCAAUAUUACGAUUC | -0.734 ± 0.083 | -0.552 ± 0.12
8 | GACAAGCAAUAUUACGCAUA | -0.868 ± 0.11 | -0.12 ± 0.15
9 | GACAAGCAAUAUUACGCAUU | -2.91 ± 0.089 | -1.96 ± 0.11
10 | GACAAGCAAUAUUACGCCAA | -2.03 ± 0.14 | -1.61 ± 0.12
11 | GACAAGCAAUAUUACGCCUC | -2.68 ± 0.14 | -2.78 ± 0.28
12 | GACAAGCAAUAUUACGCGGG | -2.84 ± 0.095 | -2.52 ± 0.14
13 | GACAAGCAAUAUUACGCGUU | -4.47 ± 0.34 | -3 ± 0.35
14 | GACAAGCAAUAUUACGCUAA | -3.01 ± 0.23 | -2.11 ± 0.2
15 | GACAAGCAAUAUUACGCUCA | -0.336 ± 0.056 | 0.274 ± 0.073
16 | GACAAGCAAUAUUACGCUGC | -3.6 ± 0.16 | -2.87 ± 0.19
17 | GACAAGCAAUAUUACGCUGU | -3.61 ± 0.25 | -1.12 ± 0.2
18 | GACAAGCAAUAUUACGCUUU | -3.43 ± 0.42 | -2.11 ± 0.32
19 | GACAAGCAAUAUUACGGCAC | 0.362 ± 0.075 | -0.214 ± 0.11
20 | GACAAGCAAUAUUACGGCUA | -0.175 ± 0.074 | -0.187 ± 0.079
21 | GACAAGCAAUAUUACGGGGG | -3.58 ± 0.15 | -3.18 ± 0.2
22 | GACAAGCAAUAUUACGGGGU | -2.96 ± 0.12 | -3.16 ± 0.15
23 | GACAAGCAAUAUUACGGGUG | -0.472 ± 0.065 | -0.733 ± 0.081
24 | GACAAGCAAUAUUACGGUCU | -4.04 ± 0.16 | -2.42 ± 0.15

Row | Sequence | self-splicing fitness (ln) (30 °C) | self-splicing fitness (ln) (37 °C)
25 | GACAAGCAAUAUUACGGUUU | -1.79 ± 0.079 | -0.351 ± 0.074
26 | GACAAGCAAUAUUACGUAUG | -2.86 ± 0.11 | -1.23 ± 0.088
27 | GACAAGCAAUAUUACGUGAC | -1.47 ± 0.096 | -1.42 ± 0.12
28 | GACAAGCAAUAUUACGUUAA | -2.19 ± 0.12 | -1.71 ± 0.15
29 | GACAAGCAAUAUUACGUUAG | -3.84 ± 0.2 | -3.34 ± 0.19
30 | GACAAGCAAUAUUACGUUGA | -2.14 ± 0.09 | -1.48 ± 0.12
31 | GACCAGCAAUAUUACGAAGG | -3.3 ± 0.13 | -2.19 ± 0.18
32 | GACCAGCAAUAUUACGAGAU | -2.62 ± 0.12 | -1.05 ± 0.084
33 | GACCAGCAAUAUUACGAGGG | -3.24 ± 0.2 | -2.57 ± 0.21
34 | GACCAGCAAUAUUACGAUGU | -0.366 ± 0.055 | 0.0308 ± 0.072
35 | GACCAGCAAUAUUACGCACU | -0.104 ± 0.06 | 0.195 ± 0.079
36 | GACCAGCAAUAUUACGCAGG | -3.82 ± 0.21 | -2.49 ± 0.13
37 | GACCAGCAAUAUUACGCAUC | -0.629 ± 0.064 | -0.599 ± 0.076
38 | GACCAGCAAUAUUACGCCAC | – | -2.73 ± 0.46
39 | GACCAGCAAUAUUACGCCUC | -1.17 ± 0.097 | -0.623 ± 0.11
40 | GACCAGCAAUAUUACGCGCA | -0.663 ± 0.065 | 0.131 ± 0.093
41 | GACCAGCAAUAUUACGCUAU | -1.28 ± 0.074 | 0.126 ± 0.082
42 | GACCAGCAAUAUUACGCUGA | -1.04 ± 0.11 | -0.811 ± 0.097
43 | GACCAGCAAUAUUACGCUUA | -0.722 ± 0.053 | 0.0868 ± 0.064
44 | GACCAGCAAUAUUACGGCAA | -0.359 ± 0.067 | -0.32 ± 0.078
45 | GACCAGCAAUAUUACGGGCG | 0.17 ± 0.059 | 0.374 ± 0.078
46 | GACCAGCAAUAUUACGGUAU | -1.29 ± 0.056 | -0.678 ± 0.068
47 | GACCAGCAAUAUUACGUAUA | -1.06 ± 0.059 | -0.251 ± 0.079
48 | GACCAGCAAUAUUACGUCUU | 0.335 ± 0.05 | 0.369 ± 0.068
